Patent US8765729B2, “Cancer therapy” (Aeolus Sciences, Inc., priority 2001, dated 2014)

Test: SOD activity (cytochrome C method)
Assay type: biochemical
Text: FIGS. 1A-1H show the structures of certain generic and specific definitions of compounds suitable for use in the present invention. With reference to FIG. 1C, mimetics of the invention can be of Formula I or Formula II, or dimeric forms thereof, an example of a dimeric form being shown in FIG. 1D. With reference to FIG. 1H, the SOD activities of certain of the depicted compounds are shown in Table 1 (as measured by the cytochrome C method): […]

CuZn-SOD: dimeric copper- and zinc-containing enzyme found in the cytosol of all cells
SOD activity: 2,200 U/mg
